From patent US9290745B2, “Luciferase biosensor” (PROMEGA CORPORATION, priority 2003, dated 2016)
Entries after “also recorded” stand apart in the source; their conditions may differ.

Key:
[1] = molecular target: cyclic AMP-dependent protein kinase (Homo sapiens, UniProt P17612); details: cited from earlier work
caspase-3 [2] = molecular target: T1, caspase-3 (Homo sapiens, UniProt P42574); type: biochemical
T1 construct: purchased BioMol
T1 sequence (P42574 29-175 limits assumed): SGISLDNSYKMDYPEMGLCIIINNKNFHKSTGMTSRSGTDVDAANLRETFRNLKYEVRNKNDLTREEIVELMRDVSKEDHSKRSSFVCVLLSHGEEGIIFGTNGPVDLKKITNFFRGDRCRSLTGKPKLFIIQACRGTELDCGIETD
T1 sequence (P42574 176-277 limits assumed): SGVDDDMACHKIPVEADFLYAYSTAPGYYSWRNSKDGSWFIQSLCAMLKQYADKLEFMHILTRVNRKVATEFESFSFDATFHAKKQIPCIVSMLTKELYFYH

[3] = molecular target: cyclic AMP dependent protein kinase catalytic subunit (Homo sapiens, UniProt P17612); details: cited from earlier work
caspase-3 [4] = molecular target: T1, caspase-3; assay: Caspase-3 activation of circularly permuted firefly luciferase having a caspase-3 site; type: biochemical; details: TnT rabbit reticulocyte lysate
enterokinase = molecular target: T2, enterokinase (Bos taurus, UniProt P98072); assay: Enterokinase assay with firefly luciferases having an internal enterokinase site; type: biochemical
T2 construct: purchased Invitrogen
T2 sequence (P98072 801-1035 limits assumed): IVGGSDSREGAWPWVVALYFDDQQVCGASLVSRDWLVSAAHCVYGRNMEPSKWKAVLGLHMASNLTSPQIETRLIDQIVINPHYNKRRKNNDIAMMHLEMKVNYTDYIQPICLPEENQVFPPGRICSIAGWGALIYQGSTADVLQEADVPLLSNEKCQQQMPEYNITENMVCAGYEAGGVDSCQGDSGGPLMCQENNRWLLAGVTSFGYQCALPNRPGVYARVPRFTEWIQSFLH

In the case of “RRFS: Photinus pyralis luciferase, valine 217 mutated to arginine generating site RRFS (Sala-Newby et al.)”, the “decrease of activity when phosphorylated” value [1] is given as “up to 80%”.

With Ac-DEVD-CHO the “caspase-3 induced decrease of Cbg69DEVD luciferase activity in presence of caspase inhibitor” value (caspase-3 [2]) was “decrease in activity was not observed”.

In the case of LRRASLG, the “reduction of activity on addition of kinase catalytic subunit” value [3] is given as 30%.

B1: WT enzyme: parental (unmodified) firefly luciferase luc+ (protein)
chain: MEDAKNIKKGPAPFYPLEDGTAGEQLHKAMKRYALVPGTIAFTDAHIEVDITYAEYFEMSVRLAEAMKRYGLNTNHRIVVCSENSLQFFMPVLGALFIGVAVAPANDIYNERELLNSMGISQPTVVFVSKKGLQKILNVQKKLPIIQKIIIMDSKTDYQGFQSMYTFVTSHLPPGFNEYDFVPESFDRDKTIALIMNSSGSTGLPKGVALPHRTACVRFSHARDPIFGNQIIPDTAILSVVPFHHGFGMFTTLGYLICGFRVVLMYRFEEELFLRSLQDYKIQSALLVPTLFSFFAKSTLIDKYDLSNLHEIASGGAPLSKEVGEAVAKRFHLPGIRQGYGLTETTSAILITPEGDDKPGAVGKVVPFFEAKVVDLDTGKTLGVNQRGELCVRGPMIMSGYVNNPEATNALIDKDGWLHSGDIAYWDEDEHFFIVDRLKSLIKYKGYQVAPAELESILLQHPNIFDAGVAGLPDDDAGELPAAVVVLEHGKTMTEKEIVDYVASQVTTAKKLRGGVVFVDEVPKGLTGKLDARKIREILIKAKKGGKIAV
In the case of B1, the “effect of caspase-3 on activity” value (caspase-3 [4]) is reported as “not affected”, the “effect of enterokinase on luciferase activity” value (enterokinase) is reported as “no effect; also recorded: not affected; also recorded: not altered” and the “luminescence reading (Turner 20/20 luminometer)” value (from here on “luminescence reading”) (enterokinase; 0 minutes, with 1 U EKMax) is reported as 2561. The “luminescence reading” value (enterokinase; 0 minutes, without EKMax) was 2517, the “luminescence reading” value (enterokinase; 15 minutes, with 1 U EKMax) was 2905 and the “luminescence reading” value (enterokinase; 15 minutes, without EKMax) was 2855. The “luminescence reading” value (enterokinase; 30 minutes, with 1 U EKMax) was 3190 and the “luminescence reading” value (enterokinase; 30 minutes, without EKMax) was 2987.
